This passage reports EC50 results from patent US20210324050A1 (published 2021).

For orientation: EC50 means the concentration that produces a half-maximal response.

Assay [1] deals with GI.2 (AF435807) VLPs (norovirus GI.2). The assay is described as follows: ELISA.
The target of assay [2] is GII.6 (AF414410) VLPs (norovirus GII.6). Kind of assay: ELISA. Background: An ELISA detects its analyte on a solid surface through an enzyme-linked reagent.
The target in assay [3] is T1, GI.1 (M87661) VLPs (UniProt Q83884 1-530; Q83885 1-212).
T1 VP1: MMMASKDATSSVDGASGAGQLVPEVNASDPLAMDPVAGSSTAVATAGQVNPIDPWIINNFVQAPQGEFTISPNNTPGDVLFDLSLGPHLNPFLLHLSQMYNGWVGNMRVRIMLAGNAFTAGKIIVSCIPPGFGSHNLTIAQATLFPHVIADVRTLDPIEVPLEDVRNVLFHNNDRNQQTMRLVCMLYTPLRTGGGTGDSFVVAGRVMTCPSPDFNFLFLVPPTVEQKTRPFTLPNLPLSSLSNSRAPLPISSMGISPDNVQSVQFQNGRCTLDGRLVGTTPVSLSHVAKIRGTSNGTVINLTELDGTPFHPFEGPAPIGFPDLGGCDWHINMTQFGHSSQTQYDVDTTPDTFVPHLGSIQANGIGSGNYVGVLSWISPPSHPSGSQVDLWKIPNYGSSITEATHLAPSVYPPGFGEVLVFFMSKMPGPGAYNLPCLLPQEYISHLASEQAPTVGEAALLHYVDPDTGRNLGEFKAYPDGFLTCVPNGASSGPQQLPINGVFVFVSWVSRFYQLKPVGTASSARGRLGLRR
T1 VP2: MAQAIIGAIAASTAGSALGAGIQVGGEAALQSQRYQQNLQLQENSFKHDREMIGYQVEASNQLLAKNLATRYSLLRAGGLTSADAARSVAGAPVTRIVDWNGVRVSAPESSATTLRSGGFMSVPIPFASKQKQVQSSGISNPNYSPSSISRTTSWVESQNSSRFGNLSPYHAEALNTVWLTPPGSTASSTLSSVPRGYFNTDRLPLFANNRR
Kind of assay: ELISA.

The target of assay [4] is GII.6 (AF414410) VLPs (norovirus GII.6). Kind of assay: VLP-PGM blockade.
Assay [5] has as its target GII.6 Shell (norovirus GII.6). The assay is described as follows: ELISA.
The target in assay [6] is GI.3 Shell (norovirus GI.3). The assay is described as follows: ELISA.
The target of assay [7] is GI.3 Protruding (norovirus GI.3). The assay is described as follows: ELISA.
The target in assay [8] is GII.17 Shell (norovirus GII.17). The assay is described as follows: ELISA.
In assay [9] the target is GII.17 Protruding (norovirus GII.17). Kind of assay: ELISA.
For assay [10], the target named is GII.6 Protruding (norovirus GII.6). Kind of assay: ELISA.
Assay [11] addresses GII.3 (norovirus GII.3). Kind of assay: ELISA.
Assay [12] deals with GII.13 (norovirus GII.13). Kind of assay: ELISA.
Assay [13] concerns the target GII.17 (norovirus GII.17). The assay is described as follows: ELISA.
Assay [14] addresses GI.3 (norovirus GI.3). Kind of assay: ELISA.
In assay [15] the target is GII.4 Protruding. The assay is described as follows: ELISA.
For assay [16], the target named is T2, GII.4 Houston 2002 VLP (UniProt P54635 1-539). Kind of assay: ELISA binding.
In assay [17] the target is T2, GII.4 Houston 2002 VLP. Kind of assay: VLP blockade.
The target in assay [18] is GII.6 (norovirus GII.6). Kind of assay: ELISA.
In assay [19] the target is GII.6 (norovirus GII.6). Kind of assay: VLP-PGM blockade.
For assay [20], the target named is GII.4 (UniProt P54635 1-538). Kind of assay: VLP-PGM blockade.
Assay [21] has as its target Protruding domain. The assay is described as follows: ELISA.
In assay [22] the target is T3, Shell domain (UniProt P54635 1-221).
T3 chain: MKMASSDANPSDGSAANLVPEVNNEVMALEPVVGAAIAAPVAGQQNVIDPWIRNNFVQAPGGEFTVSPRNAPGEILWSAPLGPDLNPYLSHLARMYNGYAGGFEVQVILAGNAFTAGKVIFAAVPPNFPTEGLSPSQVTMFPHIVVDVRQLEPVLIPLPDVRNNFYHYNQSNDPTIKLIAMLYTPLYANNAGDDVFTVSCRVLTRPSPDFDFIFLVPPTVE
The assay is described as follows: ELISA.

B1: NORO-156.3 (antibody, V domains shown)
VH: QVQLQQWGAGLLKPSETLSLTCAVYGGSFSGYYWSWIRQPPGKGLEWIGEINHSGSTNYNPSLKSRVTISVDTSKNQFSLKLSSVTAADTAVYYCARGLMDVWGQGTLVTVSS
VL: AIRMTQSPSSFSASTGDRVTITCRASQGISSYLAWYQQKPGKAPKLLIYAASTLQSGVPSRFSGSGSGTDFTLTISCLQSEDFATYYCQQYYSYPRTFGQGTKLEIK
For the molecule B1, the half-maximal effective concentration (EC50) is 175 nM in assay [1], 39 nM in assay [2], 42 nM in assay [3] and 355 nM in assay [4].

B2: 168.2 (antibody, V domains shown)
VH: QVQLVESGGGVVQPGRSLRLSCAASGFTFSSYAMHWVRQAPGKGLEWVAVISYDGSNKYYADSVKGRFTISRDNSKNTLYLQMNSLRAEDTAVYYCARSVIGYYYYGMDVWGQGTLVTVSS
VL: QPVLTQPPSASASLGASVTLTCTLSSGYSNYKVDWYQQRPGKGPRFVMRVGTGGIVGSKGDGIPDRFSVLGSGLNRYLTIKNIQEEDESDYHCGADHGSGILFGGGTKLTVL
As to B2, the concentration for a half-maximal effect (EC50) in [5] is 162 nM; in [6], 37 nM; in assay [7], 143 nM; in assay [8], 183 nM; in assay [9], 390 nM; in assay [10], 135 nM. The EC50 in [11] amounted to 224 nM; in assay [12] it was 107 nM; in assay [13], 153 nM; in assay [14], 8 nM.

B3: 232A.2 (antibody, V domains shown)
VH: QVQLKQWGAGLLKSSETLSLTCAFNGNSFGAFYWSWIRLSPGKGLEWIGEVNYLGGADYNPSLKSRVTMSADTSKRQFSLSLKSVTAADTGVYFCARGRPHDYSPGSYSRPRRYYGLDVWGQGTTVTVSS
VL: EIVLTQSPATLSLSPGDSATLSCRASQAVSTTYLAWYQQTRGQAPRLLIHGTYTRAIGIPDKFSGTGSGTDFTLTISGLAPEDFAVYYCQQYSSSPYTFGQGTKIEIT
Turning to B3, the EC50 in [15] was found to be 3 nM; in assay [9] it was 2 nM; in assay [10], 2 nM; in [16], 0.2 µg/mL; in assay [17] it was 5.4 µg/mL; in assay [11] it was 1 nM. In addition, the concentration giving a half-maximal response (EC50) in assay [18] was found to be 1 nM; in assay [12], 2 nM; in [19], 20 nM; in assay [20], 115 nM; in assay [21], 0.4 µg/mL; in assay [22], 38.1 µg/mL.
